Measured values taken from patent publication US20210070843A1.
Residue numbers refer to the chain shown, from its start.

B1: P38 (antibody, V domains shown)
VH: EVQLVESGGGLVQPGGSLRLSCAASGFTINDGGIHWVRQAPGKGLEWVAFIGPYGGSTFYADSVKGRFTISADTSKNTAYLQMNSLRAEDTAVYYCAGFIGDYSSYHGVMDYWGQGTLVTVSS
VL: DIQMTQSPSSLSASVGDRVTITCRASQDVWGYVAWYQQKPGKAPKLLISWPGGLYSGVPSRFSGSGSGTDFTLTISSLQPEDFATYYCQQYSSFPLTFGQGTKVEIKR
B2: S10 (antibody, V domains shown)
VH: EVQLVESGGGLVQPGGSLRLSCAASGFTIGGYGIHWVRQAPGKGLEWVASIGPSWGFTFYADSVKGRFTISADTSKNTAYLQMNSLRAEDTAVYYCARFNWVINGVTDYWGQGTLVTVSS
VL: B1 VL with W30S, G31Y, S49F, P51S, G52T, G53F, S92Y, S93D, F94S, L96M
B3: S11 (antibody, V domains shown)
VH: EVQLVESGGGLVQPGGSLRLSCAASGFTIDNGGIHWVRQAPGKGLEWVAWIGPYGGSTSYADSVKGRFTISADTSKNTAYLQMNSLRAEDTAVYYCARFGFGLHDLMDYWGQGTLVTVSS
VL: DIQMTQSPSSLSASVGDRVTITCRASQDVYSWVAWYQQKPGKAPKLLIYYSSFLYSGVPSRFSGSGSGTDFTLTISSLQPEDFATYYCQQYYNGPLTFGQGTKVEIKR
B4: S48 (antibody, V domains shown)
VH: EVQLVESGGGLVQPGGSLRLSCAVSGFTIGDGSIHWVRQAPGKGLEWVASIGPYGGSTYYADSVKGRFTISADTSKNTAYLQMNSLRAEDTAVYYCARFHYGYWNNMDYWGQGTLVTVSS
VL: B3 VL with Y30G, S31W, Y50G, S51T, S52R, F53W, L78V, N93S, L96I
B5: Do1 (antibody, V domains shown)
VH: EVQLVESGGGLVQPGGSLRLSCAASGFTIDNGSIHWVRQAPGKGLEWVAWIGPYGGFTSYADSVKGRFTISADTSKNTAYLQMNSLRAEDTAVYYCARFYGSGSSSFMDYWGQGTLVTVSS
VL: B3 VL with Y30W, S31G, W32G, Y49F, Y50F, S52R, F53Y

Tests used:
[1] = target: full-length H1 A/California/07/2009 HA expressed on 293T cells (influenza A virus A/California/07/2009 (H1N1)); test: cell-based or functional assay
[2] = target: H7 A/Anhui/1-BALF_RG17/2013 HA on H7N9 AH/13 pseudo virus (influenza A virus A/Anhui/1-BALF_RG17/2013 (H7N9)); test: cell-based or functional assay
[3] = target: full-length H5 A/Vietnam/1203/2004 HA expressed on 293T cells (influenza A virus A/Vietnam/1203/2004 (H5N1)); test: cell-based or functional assay
[4] = target: cell surface-expressed H3N2 WN/05 HA trimer (influenza A virus A/Wisconsin/67/2005 (H3N2)); test: cell-based or functional assay
[5] = target: full-length H1 A/California/07/2009 HA expressed on 293T cells (influenza A virus A/California/07/2009 (H1N1)); test: flow cytometry, HA-expressing 293T
[6] = target: full-length H5 A/Vietnam/1203/2004 HA expressed on 293T cells (influenza A virus A/Vietnam/1203/2004 (H5N1)); test: flow cytometry, HA-expressing 293T
[7] = target: cell surface-expressed H3N2 WN/05 HA trimer (influenza A virus A/Wisconsin/67/2005 (H3N2)); test: flow cytometry, HA-expressing 293T
[8] = target: recombinant H5N1 VN/04 HA trimer (hemagglutinin ectodomain of A/Vietnam/1203/2004) (influenza A virus A/Vietnam/1203/2004 (H5N1)); test: ELISA, coated HA

Binder	IC50 of pseudo virus neutralization H1N1 CA/09 [1] [µg/mL]	IC50 of true virus neutralization H1N1 CA/09 [1] [µg/mL]	IC50 of pseudo virus neutralization H7N9 AH/13 [2] [µg/mL]	IC50 of pseudo virus neutralization H5N1 VN/04 [3] [µg/mL]	IC50 of pseudo virus neutralization H3N2 WN/05 [4] [µg/mL]	EC50 [5] [µg/mL]	max. MFI [5] [MFI]	max. MFI [6] [MFI]	max. MFI [7] [MFI]	EC50 [8] [µg/mL]	EC50 [6] [µg/mL]	EC50 [7] [µg/mL]
B1	> 100	> 500	> 200	> 200	> 20	3.16	988	240	137			
B2	0.349	1560	> 200	0.267	> 20	3.38	10700	1100	511	0.259	0.79	7.86
B3	> 100	> 500	> 200	> 200	> 20	4.07	5600	434	207	0.0781		
B4	> 100	> 500	> 200	> 200	> 20	4.86	6240	875	122	0.0737	1.92	
B5	> 100	> 500	> 200	> 200	> 20		228	313	278	> 10		
